This is an account of results in article PMC10397247.

Holding throughout (assay): two-hybrid library CCNG1;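 also: natural log of median RNA to DNA barcode read ratio; higher means stronger binding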
In one experiment the target is T1, 4H918-bH.
T1 chain: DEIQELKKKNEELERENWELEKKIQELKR

In the next experiment the target is T2, 4H797-bH.
T2 chain: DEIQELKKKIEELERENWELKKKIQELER

In another experiment the target is T3, 4H454-bH.
T3 chain: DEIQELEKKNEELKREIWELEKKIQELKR

The target of the next experiment is T4, 4H607-bH.
T4 chain: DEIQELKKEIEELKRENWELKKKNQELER

For the next experiment, the target named is T5, 4H72-bH.
T5 chain: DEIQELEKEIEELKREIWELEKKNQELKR

The next experiment concerns the target T6, 4H908-bH.
T6 chain: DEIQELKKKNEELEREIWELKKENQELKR

A further experiment concerns the target T7, P4A-bP.
T7 chain: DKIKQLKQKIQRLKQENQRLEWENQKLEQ

For a further experiment, the target named is T8, 4H462-bH.
T8 chain: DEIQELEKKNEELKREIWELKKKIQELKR

Another experiment has as its target T9, 4H4001-bH.
T9 chain: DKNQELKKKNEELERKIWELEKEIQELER

Another experiment has as its target T10, 4H932-bH.
T10 chain: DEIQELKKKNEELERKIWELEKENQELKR

The next experiment concerns the target T11, 4H883-bH.
T11 chain: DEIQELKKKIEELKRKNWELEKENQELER

Another experiment concerns the target T12, 4H687-bH.
T12 chain: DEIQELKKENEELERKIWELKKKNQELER

A further experiment addresses T13, 4H967-bH.
T13 chain: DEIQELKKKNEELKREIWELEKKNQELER

In the next experiment the target is T14, 4H717-bH.
T14 chain: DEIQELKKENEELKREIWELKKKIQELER

A further experiment addresses T15, 4H754-bH.
T15 chain: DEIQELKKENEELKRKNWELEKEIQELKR

The next experiment deals with T16, 4H568-bH.
T16 chain: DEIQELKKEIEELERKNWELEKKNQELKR

The next experiment concerns the target T17, 4H953-bH.
T17 chain: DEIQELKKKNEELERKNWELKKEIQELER

In another experiment the target is T18, 4H496-bH.
T18 chain: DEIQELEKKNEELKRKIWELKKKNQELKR

The next experiment concerns the target T19, 4H48-bA.
T19 chain: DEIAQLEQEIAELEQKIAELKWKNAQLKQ

The next experiment concerns the target T20, 4H491-bA.
T20 chain: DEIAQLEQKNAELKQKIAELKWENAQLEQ

For the next experiment, the target named is T21, 4H2729-bH.
T21 chain: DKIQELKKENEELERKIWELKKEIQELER

The target of the next experiment is T22, 4H338-bH.
T22 chain: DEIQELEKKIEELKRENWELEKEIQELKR

A further experiment concerns the target T23, 4H3782-bH.
T23 chain: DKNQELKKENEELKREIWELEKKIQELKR

A further experiment addresses T24, 4H3354-bH.
T24 chain: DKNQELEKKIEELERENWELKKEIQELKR

The next experiment has as its target T25, 4H2618-bH.
T25 chain: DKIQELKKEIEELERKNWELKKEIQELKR

The target of a further experiment is T26, 4H3855-bH.
T26 chain: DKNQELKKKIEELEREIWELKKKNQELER

A further experiment concerns the target T27, 4H3427-bH.
T27 chain: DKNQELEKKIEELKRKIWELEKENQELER

A further experiment concerns the target T28, 4H2667-bH.
T28 chain: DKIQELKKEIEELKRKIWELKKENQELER

The next experiment concerns the target T29, 4H3185-bH.
T29 chain: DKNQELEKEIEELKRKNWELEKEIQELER

The next experiment has as its target T30, 4H331-bH.
T30 chain: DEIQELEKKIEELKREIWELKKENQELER

The target in another experiment is T31, 4H48-bN.
T31 chain: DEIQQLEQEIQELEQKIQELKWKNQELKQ

In the next experiment the target is T32, 4H3112-bH.
T32 chain: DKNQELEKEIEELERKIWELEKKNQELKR

Another experiment addresses T33, P6A-bP.
T33 chain: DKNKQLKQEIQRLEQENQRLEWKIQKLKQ

For another experiment, the target named is T34, P5A-bP.
T34 chain: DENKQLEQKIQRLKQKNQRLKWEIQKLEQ

A further experiment has as its target T35, P8A-bP.
T35 chain: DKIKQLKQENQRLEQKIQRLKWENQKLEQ

In the next experiment the target is T36, P9A-bP.
T36 chain: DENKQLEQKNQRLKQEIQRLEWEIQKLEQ

A further experiment deals with T37, P7A-bP.
T37 chain: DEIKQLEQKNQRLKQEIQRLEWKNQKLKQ

B1: 4H4001-bH (peptide)
chain: DKNQELKKKNEELERKIWELEKEIQELER
As for B1, the interaction score is -2.1 with 4H918-bH; -0.61 with 4H797-bH; 1.29 with 4H454-bH; -2.7 with 4H607-bH; -2.05 in the experiment with 4H72-bH; -0.558 in the experiment with 4H908-bH. The interaction score was 0.398 with P4A-bP; -0.256 in the experiment with 4H462-bH; -0.117 in the experiment with 4H4001-bH; 0.0317 with 4H932-bH; -1.67 with 4H883-bH; -0.869 in the experiment with 4H687-bH. For the same molecule, the interaction score with 4H967-bH is -2.28; with 4H717-bH, -0.479; in the experiment with 4H754-bH, -0.348; with 4H568-bH it was -0.215; with 4H953-bH it was -1.36.

B2: 4H496-bH (peptide)
chain: DEIQELEKKNEELKRKIWELKKKNQELKR
Turning to B2, the interaction score with 4H496-bH is -0.197.

B3: 4H48-bA (peptide)
chain: DEIAQLEQEIAELEQKIAELKWKNAQLKQ
B3: the interaction score with 4H48-bA was found to be 1.25; with 4H491-bA, 1.09.

B4: 4H2618-bH (peptide)
chain: DKIQELKKEIEELERKNWELKKEIQELKR
Take B4: the interaction score with 4H2729-bH is 2; in the experiment with 4H918-bH it was 0.911; with 4H338-bH, 1.42; in the experiment with 4H797-bH, 0.872; with 4H3782-bH, -0.244; with 4H3354-bH it was 0.422. The interaction score was 1.16 in the experiment with 4H454-bH; 1.05 with 4H2618-bH; -1.63 with 4H607-bH; -0.76 in the experiment with 4H72-bH; -0.442 in the experiment with 4H3855-bH; -1.01 in the experiment with 4H908-bH. Also, the interaction score amounted to 0.338 with 4H4001-bH; 1.07 with 4H3427-bH; 0.271 in the experiment with 4H883-bH; 0.466 in the experiment with 4H687-bH; 0.678 with 4H2667-bH; 1.08 in the experiment with 4H3185-bH. Moreover, the interaction score with 4H967-bH is -0.781; with 4H331-bH it was 1.85; with 4H717-bH it was -0.283; in the experiment with 4H48-bN, 1.54; in the experiment with 4H754-bH it was -0.696; with 4H3112-bH it was -0.148. Moreover, the interaction score with 4H568-bH was -0.291; with 4H953-bH it was 0.869.

B5: P4A-bP (peptide)
chain: DKIKQLKQKIQRLKQENQRLEWENQKLEQ
On to B5, for which the interaction score is -0.773 in the experiment with P6A-bP; -1.59 with P5A-bP; -0.918 with P8A-bP; -1.09 in the experiment with P4A-bP; -0.489 with P9A-bP; -1.51 with P7A-bP.
